The text below walks through data of article PMC8840716, “Functional Antagonism of WRI1 and TCP20 Modulates GH3.3 Expression to Maintain Auxin Homeostasis in Roots”.

Data set [1] addresses T1, AtWRI1 1-302 (UniProt Q6X5Y6 1-302). Kind of data set: EMSA; 15 mM HEPES-KOH pH 7.5, 7.5 mM KCl, 0.5 mM EDTA, 5% glycerol, 2 mM DTT, 1 ug/uL BSA, 0.05 ug/uL poly(dI-dC), 2 fmol/uL probe, ~1 pmol His-TCP20 in 20 uL, room temperature 30 min. Particulars: protein: recombinant; tags: N-terminal 6xHis (pNIC28-Bsa4); label: 5' biotin. For orientation: A gel shift assay detects complexes by their altered migration in electrophoresis.

Data set [2] has as its target T2, TCP20 (UniProt Q9LSD5 1-314). Kind of data set: EMSA; plus AtWRI1 1-302, 0.53-2.12 pmol (no reduction); 15 mM HEPES-KOH pH 7.5, 7.5 mM KCl, 0.5 mM EDTA, 5% glycerol, 2 mM DTT, 1 ug/uL BSA, 0.05 ug/uL poly(dI-dC), 2 fmol/uL probe, ~1 pmol His-TCP20 in 20 uL, room temperature 30 min. Particulars: protein: recombinant; tags: 6xHis (pET41a-6xHis); chain copies: 2; label: 5' biotin.

Data set [3] deals with T2, TCP20. Kind of data set: EMSA; 15 mM HEPES-KOH pH 7.5, 7.5 mM KCl, 0.5 mM EDTA, 5% glycerol, 2 mM DTT, 1 ug/uL BSA, 0.05 ug/uL poly(dI-dC), 2 fmol/uL probe, ~1 pmol His-TCP20 in 20 uL, room temperature 30 min. Particulars: protein: recombinant; tags: 6xHis (pET41a-6xHis); chain copies: 2; label: 5' biotin.
Data set [4] addresses T1, AtWRI1 1-302. Kind of data set: EMSA; equal affinity to probe 3; 15 mM HEPES-KOH pH 7.5, 7.5 mM KCl, 0.5 mM EDTA, 5% glycerol, 2 mM DTT, 1 ug/uL BSA, 0.05 ug/uL poly(dI-dC), 2 fmol/uL probe, ~1 pmol His-TCP20 in 20 uL, room temperature 30 min. As to conditions: protein: recombinant; tags: N-terminal 6xHis (pNIC28-Bsa4); label: 5' biotin.
Data set [5] has as its target T1, AtWRI1 1-302. The data set is described as follows: EMSA; equal affinity to probe 2; 15 mM HEPES-KOH pH 7.5, 7.5 mM KCl, 0.5 mM EDTA, 5% glycerol, 2 mM DTT, 1 ug/uL BSA, 0.05 ug/uL poly(dI-dC), 2 fmol/uL probe, ~1 pmol His-TCP20 in 20 uL, room temperature 30 min. As to conditions: protein: recombinant; tags: N-terminal 6xHis (pNIC28-Bsa4); label: 5' biotin.
Data set [6] deals with T1, AtWRI1 1-302. The data set is described as follows: EMSA; equal affinity to probe 1; 15 mM HEPES-KOH pH 7.5, 7.5 mM KCl, 0.5 mM EDTA, 5% glycerol, 2 mM DTT, 1 ug/uL BSA, 0.05 ug/uL poly(dI-dC), 2 fmol/uL probe, ~1 pmol His-TCP20 in 20 uL, room temperature 30 min. Particulars: protein: recombinant; tags: N-terminal 6xHis (pNIC28-Bsa4); label: 5' biotin.

T1 sequence (Q6X5Y6 1-302): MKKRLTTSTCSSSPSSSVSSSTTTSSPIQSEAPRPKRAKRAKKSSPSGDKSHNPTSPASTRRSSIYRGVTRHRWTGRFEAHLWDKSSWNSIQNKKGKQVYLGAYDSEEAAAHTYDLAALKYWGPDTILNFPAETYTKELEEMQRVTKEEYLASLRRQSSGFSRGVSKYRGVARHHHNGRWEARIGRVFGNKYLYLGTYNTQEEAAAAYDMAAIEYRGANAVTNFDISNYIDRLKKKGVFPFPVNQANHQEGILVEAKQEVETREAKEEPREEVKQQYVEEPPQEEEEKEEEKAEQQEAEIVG
T2 sequence (Q9LSD5 whole entry): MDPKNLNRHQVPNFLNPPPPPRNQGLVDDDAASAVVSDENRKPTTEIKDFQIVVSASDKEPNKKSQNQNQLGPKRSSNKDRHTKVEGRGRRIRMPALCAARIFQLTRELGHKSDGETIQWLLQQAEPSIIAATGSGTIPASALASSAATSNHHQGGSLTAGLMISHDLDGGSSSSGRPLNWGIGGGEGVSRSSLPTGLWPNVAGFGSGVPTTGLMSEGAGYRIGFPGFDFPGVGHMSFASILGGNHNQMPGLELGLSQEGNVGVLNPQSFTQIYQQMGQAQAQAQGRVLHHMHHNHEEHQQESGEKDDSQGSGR

B1: proGH3.3 probe 3 (dsDNA)
DNA 1: GACATATCAGTCCCACATGTCTGCCCAAAACTAGCCAAAGATTACGTGACC
DNA 2: GGTCACGTAATCTTTGGCTAGTTTTGGGCAGACATGTGGGACTGATATGTC
For the molecule B1, the binding result with AtWRI1 1-302 [1] and in the data set with TCP20 [2] was “binds” each time.

B2: proGH3.3 probe 3M (dsDNA)
DNA 1: GACATATCAATAAAAAATGTCTGCCCAAAACTAGCCAAAGATTACGTGACC
DNA 2: GGTCACGTAATCTTTGGCTAGTTTTGGGCAGACATTTTTTATTGATATGTC
On to B2, for which the binding result is recorded as “no binding” with TCP20 [3] and “binds” with AtWRI1 1-302 [4].

B3: proGH3.3 probe 2 (dsDNA)
DNA 1: ATGTCTGCCCAAAACTAGCCAAAGATTACGTGACCGCGGTCCCTCTTGTCC
DNA 2: GGACAAGAGGGACCGCGGTCACGTAATCTTTGGCTAGTTTTGGGCAGACAT
As to B3, the binding result in the data set with AtWRI1 1-302 [1] and with TCP20 [3] was “binds” in each case.

B4: proGH3.3 probe 2M (dsDNA)
DNA 1: ATGTCTGCCCAAAACTAGCCAAAGATTACGTGACCGCAATAAATATTGTCC
DNA 2: GGACAATATTTATTGCGGTCACGTAATCTTTGGCTAGTTTTGGGCAGACAT
Consider B4, for which the binding result in the data set with TCP20 [3] is on record as “no binding”; with AtWRI1 1-302 [5], “binds”.

B5: proGH3.3 probe 1 (dsDNA)
DNA 1: TCTAACGATAACAAACCGAGCCCACTTTTATGTCGACGTGGAATTTGGCT
DNA 2: AGCCAAATTCCACGTCGACATAAAAGTGGGCTCGGTTTGTTATCGTTAGA
In the case of B5, the binding result with AtWRI1 1-302 [1] and with TCP20 [3] was “binds” each time.

B6: proGH3.3 probe 1M (dsDNA)
DNA 1: TCTAACGATAACAAACCAAGAAAAATTTTATGTCGACGTGGAATTTGGCT
DNA 2: AGCCAAATTCCACGTCGACATAAAATTTTTCTTGGTTTGTTATCGTTAGA
For the molecule B6, the binding result with TCP20 [3] is listed as “no binding”; with AtWRI1 1-302 [6], “binds”.

B7: proGH3.3 probe 4 (dsDNA)
DNA 1: CTATATATTTTTAATATTTAGGTCCCATTAAATCAGTTTGTGATTTCAGA
DNA 2: TCTGAAATCACAAACTGATTTAATGGGACCTAAATATTAAAAATATATAG
Turning to B7, the binding result with TCP20 [2] was “binds”.

B8: proGH3.3 probe 4M (dsDNA)
DNA 1: CTATATATTTTTAATATTTAAATAAAATTAAATCAGTTTGTGATTTCAGA
DNA 2: TCTGAAATCACAAACTGATTTAATTTTATTTAAATATTAAAAATATATAG
B8: the binding result with TCP20 [3] was “no binding”.
